Tested on: MS2 coat protein
Test: apparent KD of MS2 coat protein; designed switch direction (-1 OFF switch, 1 ON switch): -1; higher = weaker reporter binding
How it was run: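 The apparent KD reported per design is the median over clusters of curve fits to normalised cluster fluorescence. The RNA switches were transcribed on Illumina chips by stalled E. coli RNA polymerase. SNAP-549-labelled MS2 coat protein was titrated from 0.7 or 1.5 nM, doubling up to 3 µM, in Tris-HCl pH 7.5 buffer containing KCl, MgCl2, BSA, DTT, tRNA and Tween-20, with no input, 200 uM small-molecule ligand, or an oligonucleotide input.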

[1] = Eterna round: R95, input ligand: microRNA oligo, concentration not stated
[2] = input ligand: microRNA oligo, concentration not stated
[3] = Eterna round: R95, input ligand: FMN 200 uM
[4] = Eterna round: R95, input ligand: none

## UUAUUAAGUGUGAGGAUAUGCUGGUCCUUGGAUCAGCAGAAGGCACAUGAGGAUCACCCAUGUACAAUAUUUUA [Mat - Exclusion 4 - JL Mod - D29] (puzzle: Brourd's mod of Exclusion 4)
[1]
  apparent KD of MS2 coat protein: 35.8 nM

## UAUUAGCAAGCGAGAUCCCACAUGAGGAUCACCCAUGUGCUCGUCUUAUAAGGUACUGUGACGAAAGUCACGGUACC [Sensor 3, v1 - 91] (Eterna round: R96, puzzle: Sensor v3, turn-off variant 1)
Input ligand: FMN 200 uM
  apparent KD of MS2 coat protein: 11.5 nM
[2]
  apparent KD of MS2 coat protein: 298 nM
Input ligand: none
  apparent KD of MS2 coat protein: 15.5 nM

## ACAAGCAUUUAUAUUUUAAAAUUUUAUCGUCUUAUAAUUACAUGAGGAUCACCCAUGUAUAAAGGGUGAAUAAUAAU [JR_Sensorv2_tov2_Sub550] (Eterna round: R96, puzzle: Sensor v2, turn-off variant 2)
Input ligand: FMN 200 uM
  apparent KD of MS2 coat protein: 93.9 nM
[2]
  apparent KD of MS2 coat protein: 203 nM
Input ligand: none
  apparent KD of MS2 coat protein: 91.8 nM

## AACAGUACAGGAUAUACAUGAGGAUCACCCAUGUGAGAAUUAAGUGGCGAACCACAAAGUAGAAGGGUACUGGA [Mat - Exclusion 3 - JL mod - D1] (Eterna round: R96, puzzle: Exclusion 3)
Input ligand: FMN 200 uM
  apparent KD of MS2 coat protein: 98.2 nM
[2]
  apparent KD of MS2 coat protein: 38.5 nM
Input ligand: none
  apparent KD of MS2 coat protein: 46.3 nM

## CAACUGUCAGGAUAUCGUGCAUACAACGAAAGUUCUAUGUGCGAGAAGGGACAUGAGGAUCACCCAUGUAAACG [Omei Ex4 A27] (Eterna round: R97, puzzle: Exclusion 4)
Input ligand: FMN 200 uM
  apparent KD of MS2 coat protein: 199 nM
Input ligand: none
  apparent KD of MS2 coat protein: 60.9 nM

## AGAUCACAUGAGGAUCACCCAUGUCAGGAUAUCAUCAUUGAAGCCUCGGCUUCAAUGAUGAGAAGGGACAUAAU [E1/2-B2] (Eterna round: R97, puzzle: Exclusion 1)
Input ligand: FMN 200 uM
  apparent KD of MS2 coat protein: 546 nM
Input ligand: none
  apparent KD of MS2 coat protein: 465 nM

## GAGAACUGAGGAUAUACAUGAGGAUCACCCAUGUUAAGAAGAAAGUAUAAAAGAUUAUGUAGAAGGCAGAGAGA [JR_Ex3_Sub068] (Eterna round: R97, puzzle: Exclusion 3)
Input ligand: FMN 200 uM
  apparent KD of MS2 coat protein: 29.8 nM
Input ligand: none
  apparent KD of MS2 coat protein: 33.3 nM

## UUUUAGUAAGGAUAUGAUUAGAUCUACGAAAGUAGAUCUAAUCAGAAGGUACAUGAGGAUCACCCAUGUAGAUU [Mod of Brourd 3 - Jieux - Exclusion 4] (Eterna round: R97, puzzle: Exclusion 4)
Input ligand: FMN 200 uM
  apparent KD of MS2 coat protein: 24.2 nM
Input ligand: none
  apparent KD of MS2 coat protein: 18.5 nM

## GUUACACAUGAGGAUCACCCAUGUGAGGAUAUGGAUUCGUUGCAAGUAGGCGAUGGAUCCAGAAGGCGCGUGAG [JR_Ex1_Sub080] (Eterna round: R97, puzzle: Exclusion 1)
Input ligand: FMN 200 uM
  apparent KD of MS2 coat protein: 58.7 nM
Input ligand: none
  apparent KD of MS2 coat protein: 50.5 nM

## CAUGAUCUUCGGAUCAUGUACAUGAGGAUCACCCAUGUGACGAGUAUAUCCUCAAACAAGCUUUUUGCUCGUCUUAU [Sensor v3 - Turn-off variant 1 - 22] (puzzle: Sensor v3, turn-off variant 1)
[3]
  apparent KD of MS2 coat protein: 299 nM
[1]
  apparent KD of MS2 coat protein: 417 nM
[4]
  apparent KD of MS2 coat protein: 327 nM

## CAGUACUGAGGAUAUACAUGAGGAUCACCCAUGUGUUCCAGCUGGGAAACUAGCAAAAGUAGAAGGCAGUACUG [salish99_ex3_r3_076] (puzzle: Exclusion 3)
[3]
  apparent KD of MS2 coat protein: 422 nM
[1]
  apparent KD of MS2 coat protein: 27.3 nM
[4]
  apparent KD of MS2 coat protein: 20.8 nM

## CACUUACAUGAGGAUCACCCAUGUGAGGAUAUCGUGACCAGACGAGAAGUCUAUGUCACGAGAAGGUACAUGGG [Exclusion 1 (Mod 1.1 solution 97 by Eternabot)] (Eterna round: R97, puzzle: Exclusion 1)
Input ligand: FMN 200 uM
  apparent KD of MS2 coat protein: 93.3 nM
Input ligand: none
  apparent KD of MS2 coat protein: 574 nM

## AGCGUGGAGACAGGAUAUGAGAAUAGAUAGAAAUCAGAAGGGUCACAUGAGGAUCACCCAUGUAAAGUCUUGAGGAUGAGUGAU [Prohibition 3 - Jieux - Exclusion NG 1] (Eterna round: R96, puzzle: Exclusion NG 1)
[2]
  apparent KD of MS2 coat protein: 70.4 nM

## GUCUACAUGACAUGAGGAUCACCCAUGUGUUAUAUUUUUACUAAGGAUAUAUUUUUAAUGUUGAGAUAGAAGGUAGUUUCGGUC [JR_ExcNG3_Sub093] (Eterna round: R96, puzzle: Exclusion NG 3)
[2]
  apparent KD of MS2 coat protein: 32.8 nM

## CGUUGGCGAGGAUAUACAUGAGGAUCACCCAUGUGAGAGAAAAAAGUGAGGAAGAAAAGUAGAAGGCGCUGACC [salish99_ex3_r3_049] (puzzle: Exclusion 3)
[3]
  apparent KD of MS2 coat protein: 110 nM
[1]
  apparent KD of MS2 coat protein: 42.7 nM
[4]
  apparent KD of MS2 coat protein: 45.9 nM

## CUAUCAAGCAAGGAUAUGCAAUUUAUUAUUUAUGCAGAAGGUGCAACAUGAGGAUCACCCAUGUUUCUGGGUUU [JR_E6_Sub047] (puzzle: Exclusion 6)
[1]
  apparent KD of MS2 coat protein: 39.5 nM

## UUAUAUAGUGUGAGGAUAUGCUGGUCCUUGGAUCAGCAGAAGGCACAUGAGGAUCACCCAUGUAGUUAAAUUUA [Mat - Exclusion 4 - JL Mod - D17] (puzzle: Brourd's mod of Exclusion 4)
[1]
  apparent KD of MS2 coat protein: 27.3 nM

## CAUUAGCAAGCGAGAUCCCACAUGAGGAUCACCCAUGUGCUCGUCUUAUAAGGUACUGUGACGAUAGUCACGGUACC [Mat - Sensor, turn-off var - Eli Mod - D41] (Eterna round: R97, puzzle: Sensor, turn-off variant 1)
Input ligand: FMN 200 uM
  apparent KD of MS2 coat protein: 17.1 nM
Input ligand: none
  apparent KD of MS2 coat protein: 14.3 nM

## UCUUCACAUGAGGAUCACCCAUGUGAGGAUAUGGUUUCGCUGGCCGUAGCCAGUGGAACCAGAAGGCGCGUGAU [Mat - Exclusion 1 - JL Mod - D23] (Eterna round: R97, puzzle: Exclusion 1)
Input ligand: FMN 200 uM
  apparent KD of MS2 coat protein: 89.6 nM
Input ligand: none
  apparent KD of MS2 coat protein: 73.5 nM

## AUGAGGUGAGGAUAUACGAGAUGAUAUUGCAGAGCAAGUCAGUAGAAGGCACAUGAGGAUCACCCAUGUUCGGG [Eternabot (L2) Solution 93] (Eterna round: R97, puzzle: Exclusion 4)
Input ligand: FMN 200 uM
  apparent KD of MS2 coat protein: 269 nM
Input ligand: none
  apparent KD of MS2 coat protein: 397 nM

## UGUCAGAUGGUAGGAUAUCCUUAUCGCGUGUCCCUUUCCUAACAUGAGGAUCACCCAUGUCGGUGGGAGAAGGGCCGUAUGGUG [salish99_ExNG02_R04_038] (Eterna round: R96, puzzle: Exclusion NG 2)
Input ligand: FMN 200 uM
  apparent KD of MS2 coat protein: 11.5 nM
[2]
  apparent KD of MS2 coat protein: 11.2 nM
Input ligand: none
  apparent KD of MS2 coat protein: 13.4 nM

## GAAUAGCGAGGAUAUACAUGAGGAUCACCCAUGUGAUCCUUAGGCUGUUCAAGCCAAUGUAGAAGGCGCAAAUU [jl-ex3.4.58 ViennaUCT mod] (Eterna round: R97, puzzle: Exclusion 3)
Input ligand: FMN 200 uM
  apparent KD of MS2 coat protein: 76.6 nM
Input ligand: none
  apparent KD of MS2 coat protein: 129 nM

## AGAUGGCGAGGAUAUACAUGAGGAUCACCCAUGUGAGAUAAAAGAGUGAGGAAGAAAAGUAGAAGGCGCUGUCA [Mat - Exclusion 3 - Mod of Salish D16] (puzzle: Exclusion 3)
[3]
  apparent KD of MS2 coat protein: 116 nM
[1]
  apparent KD of MS2 coat protein: 95.8 nM
[4]
  apparent KD of MS2 coat protein: 120 nM

## ACAUGACAGCUAGGAUAUAAAUGACAUGAGGAUCACCCAUGUUGUCCCAUGUUGACGAUCACCGAUUAGAAGGAGCCACCCAUG [Ex NG2 #1] (Eterna round: R96, puzzle: Exclusion NG 2)
Input ligand: FMN 200 uM
  apparent KD of MS2 coat protein: 106 nM
[2]
  apparent KD of MS2 coat protein: 110 nM
Input ligand: none
  apparent KD of MS2 coat protein: 89 nM

## AUGAGCAGACGGAGAUCCAACAUGAGGAUCACCCAUGUCUCAAAAGCUUUUUGCUCAUCUUAUUGUACCUUGGUGCU [Mat - Sensor v3 - turn-off var 1 - JL Mod - D16] (puzzle: Sensor v3, turn-off variant 1)
[3]
  apparent KD of MS2 coat protein: 167 nM
[1]
  apparent KD of MS2 coat protein: 13.2 nM
[4]
  apparent KD of MS2 coat protein: 194 nM

## AUCAGCUCGUGAGGAUAUGAACAUGAGGAUCACCCAUGUAAGAUCAAGCUGCUUCGGCAGCAAGUUCAGAAGGCACGAGCUGAU [ENG2/10-A3] (Eterna round: R96, puzzle: Exclusion NG 2)
Input ligand: FMN 200 uM
  apparent KD of MS2 coat protein: 182 nM
[2]
  apparent KD of MS2 coat protein: 84 nM
Input ligand: none
  apparent KD of MS2 coat protein: 156 nM

## UUUUAGAGAGGAUAUAUAUUGUGAAACAUGAGGAUCACCCAUGUAAUAAUAUGGAUAUAAAUAGAAGGCUCAUUUA [Mat - Exclusion 5 - JL mod - D8] (puzzle: Exclusion 5)
[3]
  apparent KD of MS2 coat protein: 25.7 nM
[1]
  apparent KD of MS2 coat protein: 26.9 nM
[4]
  apparent KD of MS2 coat protein: 28.8 nM

## CCAUCCAGUGUGAGGAUAUGCUGGUCCUUGGAUCAGCAGAAGGCACAUGAGGAUCACCCAUGUGAAUAGGAUGG [Mat - Exclusion 4 - JL Mod - D85] (puzzle: Brourd's mod of Exclusion 4)
[3]
  apparent KD of MS2 coat protein: 153 nM
[1]
  apparent KD of MS2 coat protein: 18.9 nM
[4]
  apparent KD of MS2 coat protein: 24.1 nM

## UUGGAGAUAGGAUAUACGAGGAGAGUUGAGGGAAGGUGAUGACAUGAGGAUCACCCAUGUAGAAGGAUCAGGAG [JR_Exclu2_Sub069] (Eterna round: R96, puzzle: Exclusion 2)
Input ligand: FMN 200 uM
  apparent KD of MS2 coat protein: 169 nM
[2]
  apparent KD of MS2 coat protein: 98.8 nM
Input ligand: none
  apparent KD of MS2 coat protein: 172 nM

## CUUUUGUGAGGAUAUUAGUAGUAAAUAAAUAAAAUUACUACUGAGAAGGCACAUGAGGAUCACCCAUGUUCUUC [salish99_ex4_r3_066] (puzzle: Exclusion 4)
[1]
  apparent KD of MS2 coat protein: 18.8 nM

## CUGUUCCGUGUAGGAUAUGCAUAUUCCCAUUAUGCAGAAGGACAUGAGGAUCACCCAUGUAUGUUAUUAUCAUGUGUUACAUGC [Design 8] (Eterna round: R96, puzzle: Exclusion NG 1)
Input ligand: FMN 200 uM
  apparent KD of MS2 coat protein: 635 nM
[2]
  apparent KD of MS2 coat protein: 31.3 nM
Input ligand: none
  apparent KD of MS2 coat protein: 36.4 nM

## AAAAAACAUGAGGAUCACCCAUGUUAGGAUAUGCUAUGGAAAAUAAAAAAUAAACAUAGCAGAAGGAACAAAAA [Mat - Exclusion 1 - Eli mod - D30] (Eterna round: R96, puzzle: Exclusion 1)
[2]
  apparent KD of MS2 coat protein: 33.2 nM

## AUCCUGAGGCUUUGCUUUAGGCGUACAUGAGGAUCACCCAUGUAGGAUAUGGUAGGCUUUGCUUACCAGAAGGACAUUAUGAUC [JL EXNG3 1.19] (Eterna round: R96, puzzle: Exclusion NG 3)
Input ligand: FMN 200 uM
  apparent KD of MS2 coat protein: 243 nM
[2]
  apparent KD of MS2 coat protein: 44.1 nM
Input ligand: none
  apparent KD of MS2 coat protein: 43 nM

Source: the supplement of paper PMC9170038
